Assay results as given in patent US20190359653A1, “SELECTIVE PEPTIDE INHIBITORS OF FRIZZLED” (Genentech, Inc., priority 2016, published 2019).

Molecular target: FZD7 class proteins
Assay: ELISA of biotinylated Wnt binding to FZD CRD-Fc with or without peptide

fold enhancement of binding by Fz7-21 or dFz7-21: 1.5 to 2 fold
Substance: Biotinylated Wnt3a (from UniProt P27467 19-352) (ligand)
